Laboratory results from IntAct's records for PubMed 18434552.

B1: Tyrosine-protein phosphatase non-receptor type 23 (Homo sapiens), Q9H3S7 (parent)
chain: MEAVPRMPMIWLDLKEAGDFHFQPAVKKFVLKNYGENPEAYNEELKKLELLRQNAVRVPRDFEGCSVLRKYLGQLHYLQSRVPMGSGQEAAVPVTWTEIFSGKSVAHEDIKYEQACILYNLGALHSMLGAMDKRVSEEGMKVSCTHFQCAAGAFAYLREHFPQAYSVDMSRQILTLNVNLMLGQAQECLLEKSMLDNRKSFLVARISAQVVDYYKEACRALENPDTASLLGRIQKDWKKLVQMKIYYFAAVAHLHMGKQAEEQQKFGERVAYFQSALDKLNEAIKLAKGQPDTVQDALRFTMDVIGGKYNSAKKDNDFIYHEAVPALDTLQPVKGAPLVKPLPVNPTDPAVTGPDIFAKLVPMAAHEASSLYSEEKAKLLREMMAKIEDKNEVLDQFMDSMQLDPETVDNLDAYSHIPPQLMEKCAALSVRPDTVRNLVQSMQVLSGVFTDVEASLKDIRDLLEEDELLEQKFQEAVGQAGAISITSKAELAEVRREWAKYMEVHEKASFTNSELHRAMNLHVGNLRLLSGPLDQVRAALPTPALSPEDKAVLQNLKRILAKVQEMRDQRVSLEQQLRELIQKDDITASLVTTDHSEMKKLFEEQLKKYDQLKVYLEQNLAAQDRVLCALTEANVQYAAVRRVLSDLDQKWNSTLQTLVASYEAYEDLMKKSQEGRDFYADLESKVAALLERTQSTCQAREAARQQLLDRELKKKPPPRPTAPKPLLPRREESEAVEAGDPPEELRSLPPDMVAGPRLPDTFLGSATPLHFPPSPFPSSTGPGPHYLSGPLPPGTYSGPTQLIQPRAPGPHAMPVAPGPALYPAPAYTPELGLVPRSSPQHGVVSSPYVGVGPAPPVAGLPSAPPPQFSGPELAMAVRPATTTVDSIQAPIPSHTAPRPNPTPAPPPPCFPVPPPQPLPTPYTYPAGAKQPIPAQHHFSSGIPAGFPAPRIGPQPQPHPQPHPSQAFGPQPPQQPLPLQHPHLFPPQAPGLLPPQSPYPYAPQPGVLGQPPPPLHTQLYPGPAQDPLPAHSGALPFPSPGPPQPPHPPLAYGPAPSTRPMGPQAAPLTIRGPSSAGQSTPSPHLVPSPAPSPGPGPVPPRPPAAEPPPCLRRGAAAADLLSSSPESQHGGTQSPGGGQPLLQPTKVDAAEGRRPQALRLIERDPYEHPERLRQLQQELEAFRGQLGDVGALDTVWRELQDAQEHDARGRSIAIARCYSLKNRHQDVMPYDSNRVVLRSGKDDYINASCVEGLSPYCPPLVATQAPLPGTAADFWLMVHEQKVSVIVMLVSEAEMEKQKVARYFPTERGQPMVHGALSLALSSVRSTETHVERVLSLQFRDQSLKRSLVHLHFPTWPELGLPDSPSNLLRFIQEVHAHYLHQRPLHTPIIVHCSSGVGRTGAFALLYAAVQEVEAGNGIPELPQLVRRMRQQRKHMLQEKLHLRFCYEAVVRHVEQVLQRHGVPPPCKPLASASISQKNHLPQDSQDLVLGGDVPISSIQATIAKLSIRPPGGLESPVASLPGPAEPPGLPPASLPESTPIPSSSPPPLSSPLPEAPQPKEEPPVPEAPSSGPPSSSLELLASLTPEAFSLDSSLRGKQRMSKHNFLQAHNGQGLRATRPSDDPLSLLDPLWTLNKT
partner: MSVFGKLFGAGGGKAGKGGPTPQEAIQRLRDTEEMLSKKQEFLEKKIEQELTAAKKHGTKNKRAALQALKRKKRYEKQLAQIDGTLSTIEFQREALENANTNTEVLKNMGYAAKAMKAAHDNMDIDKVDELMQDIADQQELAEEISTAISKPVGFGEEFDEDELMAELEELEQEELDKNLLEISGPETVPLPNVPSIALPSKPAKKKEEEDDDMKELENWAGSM

Variants of: B1
Details: with chm4b_human CHMP4B

| effect of a mutation on the interaction | Variant |
| --- | --- |
| disrupting interaction | L202D;I206D |
| disrupting interaction | L202D |
